Here are results for 19 substances from US10597433B2, “Peptides and combination of peptides for use in immunotherapy against small cell lung cancer and other cancers” (Immatics Biotechnologies GmbH, priority 2015, dated 2020).

For one experiment, the system named is CD8+ T cells. The experiment in a line: In vitro T-cell priming assay with aAPCs loaded with peptide/MHC complexes and anti-CD28 antibody, pMHC multimer readout. The format is cell-based, human. The settings on record: for Wells positive [%]: HLA-A*02 restricted peptides, CD8+ T cells of healthy donors, Table 10B; for wells (in vitro immunogenicity, positive wells): CD8+ T cells of healthy HLA-A*02 donors, Table 10A. An excerpt: In order to obtain information regarding the immunogenicity of the TUMAPs of the present invention, the inventors performed investigations using an in vitro T-cell priming assay based on repeated stimulations of CD8+ T cells with artificial antigen presenting cells (aAPCs) loaded with peptide/MHC complexes and anti-CD28 antibody.
In order to perform in vitro stimulations by artificial antigen presenting cells loaded with peptide-MHC complex (pMHC) and anti-CD28 antibody, the inventors first isolated CD8+ T cells from fresh HLA-A*02 leukapheresis products via positive selection using CD8 microbeads (Miltenyi Biotec, Bergisch-Gladbach, Germany) of healthy donors obtained from the University clinics Mannheim, Germany, after informed consent.
PBMCs and isolated CD8+ lymphocytes were incubated in T-cell medium (TCM) until use consisting of RPMI-Glutamax (Invitrogen, Karlsruhe, Germany) supplemented with 10% heat inactivated human AB serum (PAN-Biotech, Aidenbach, Germany), 100 U/ml Penicillin/100 μg/ml Streptomycin (Cambrex, Cologne, Germany), 1 mM sodium pyruvate (CC Pro, Oberdorla, Germany), 20 μg/ml Gentamycin (Cambrex). 2.5 ng/ml IL-7 (PromoCell, Heidelberg, Germany) and 10 U/ml IL-2 (Novartis Pharma, Nürnberg, Germany) were also added to the TCM at this step.
Generation of pMHC/anti-CD28 coated beads, T-cell stimulations and readout was performed in a highly defined in vitro system using four different pMHC molecules per stimulation condition and 8 different pMHC molecules per readout condition.
The purified co-stimulatory mouse IgG2a anti human CD28 Ab9.3 (Jung et al., 1987) was chemically biotinylated using Sulfo-N-hydroxysuccinimidobiotin as recommended by the manufacturer (Perbio, Bonn, Germany). Beads used were 5.6 μm diameter streptavidin coated polystyrene particles (Bangs Laboratories, Ill., USA).
800.000 beads/200 μl were coated in 96-well plates in the presence of 4×12.5 ng different biotin-pMHC, washed and 600 ng biotin anti-CD28 were added subsequently in a volume of 200 μl. Stimulations were initiated in 96-well plates by co-incubating […] CD8+ T cells with 2×10^5 washed coated beads in 200 μl TCM supplemented with 5 ng/ml IL-12 (PromoCell) for 3 days at 37° C. Half of the medium was then exchanged by fresh TCM supplemented with 80 Uml IL-2 and incubating was continued for 4 days at 37° C. This stimulation cycle was performed for a total of three times. For the pMHC multimer readout using 8 different pMHC molecules per condition, a two-dimensional combinatorial coding approach was used as previously described (Andersen et al., 2012) with minor modifications encompassing coupling to 5 different fluorochromes. Finally, multimeric analyses were performed by staining the cells with Live/dead near IR dye (Invitrogen, Karlsruhe, Germany), CD8-FITC antibody clone SK1 (BD, Heidelberg, Germany) and fluorescent pMHC multimers. For analysis, a BD LSRII SORP cytometer equipped with appropriate lasers and filters was used. Peptide specific cells were calculated as percentage of total CD8+ cells. Evaluation of multimeric analysis was done using the FlowJo software (Tree Star, Oreg., USA). In vitro priming of specific multimer+ CD8+ lymphocytes was detected by comparing to negative control stimulations.

The target of another experiment is HLA-A*02:01 (Homo sapiens, UniProt P04439, D140Y/D185E/D98H/E176V/E277Q/G131W/G231S/I119V/I121R/I166T/I218V/L300P/L318F/N151K/N90K/P208A/P217A/Q86G/Q94H/R138H/R169H/T345S). As to the kind of experiment: MHC binding assay: UV-ligand exchange with ELISA detection of β2m of stabilized MHC complexes. The settings on record: binding to HLA-A*02:01. An excerpt: Candidate peptides for T cell based therapies according to the present invention were further tested for their MHC binding capacity (affinity). The individual peptide-MHC complexes were produced by UV-ligand exchange, where a UV-sensitive peptide is cleaved upon UV-irradiation, and exchanged with the peptide of interest as analyzed. Only peptide candidates that can effectively bind and stabilize the peptide-receptive MHC molecules prevent dissociation of the MHC complexes. To determine the yield of the exchange reaction, an ELISA was performed based on the detection of the light chain (β2m) of stabilized MHC complexes. The assay was performed as generally described in Rodenko et al. (Rodenko et al., 2006).
96 well MAXISorp plates (NUNC) were coated over night with 2 μg/ml streptavidin in PBS at room temperature, washed 4× and blocked for 1 h at 37° C. in 2% BSA containing blocking buffer. Refolded HLA-A*02:01/MLA-001 monomers served as standards, covering the range of 15-500 ng/ml. Peptide-MHC monomers of the UV-exchange reaction were diluted 100 fold in blocking buffer. Samples were incubated for 1 h at 37° C., washed four times, incubated with 2 μg/ml HRP conjugated anti-β2m for 1 h at 37° C., washed again and detected with TMB solution that is stopped with […]. Absorption was measured at 450 nm. Candidate peptides that show a high exchange yield (preferably higher than 50%, most preferred higher than 75%) are generally preferred for a generation and production of antibodies or fragments thereof, and/or T cell receptors or fragments thereof, as they show sufficient avidity to the MHC molecules and prevent dissociation of the MHC complexes.
For orientation: In an ELISA, binding on a coated surface is turned into a signal by an enzyme label.

For “2 (VMFNFPDQATV; listed as Homo sapiens) [compound 2]”, the “Wells positive [%]” value with CD8+ T cells is on record as “+ (<20% = +)”. Besides, in the experiment with HLA-A*02:01, the “Peptide exchange (MHC class I binding score, peptide exchange yield)” value (from here on “Peptide exchange”) is reported as “+++ (≥50 = +++)”.

As for “4 (GLLDPGMLVNI; listed as Homo sapiens) [compound 4]”, the “Wells positive [%]” value with CD8+ T cells is “++ (20%-49% = ++)”. The “Peptide exchange” value with HLA-A*02:01 was “+++ (≥50 = +++)”.

As to “6 (SIMDYVVFV; listed as Homo sapiens) [compound 6]”, the “Wells positive [%]” value in the experiment on CD8+ T cells was “+ (<20% = +)”. The “Peptide exchange” value with HLA-A*02:01 is “++++ (≥75% = ++++)”.

Take “11 (KLFAIPILL; listed as Homo sapiens) [compound 11]”: the “Wells positive [%]” value with CD8+ T cells is reported as “++++ (≥70 = ++++)”. Moreover, in the experiment with HLA-A*02:01, the “Peptide exchange” value is given as “+++ (≥50 = +++)”.

Consider “39 (GLDPTQFRV; listed as Homo sapiens) [compound 39]”, for which the “Wells positive [%]” value in the experiment on CD8+ T cells was “++++ (≥70 = ++++)”. In the experiment with HLA-A*02:01, the “Peptide exchange” value is recorded as “+++ (≥50 = +++)”.

As for “80 (ILMDPSPEYA; listed as Homo sapiens) [compound 80]”, in the experiment on CD8+ T cells, the “Wells positive [%]” value was “+++ (50%-69% = +++)”. The “Peptide exchange” value in the experiment with HLA-A*02:01 is reported as “+++ (≥50 = +++)”.

As to “82 (ALSSVIKEL; listed as Homo sapiens) [compound 82]”, the “Wells positive [%]” value with CD8+ T cells is given as “+ (<20% = +)”. Moreover, the “Peptide exchange” value in the experiment with HLA-A*02:01 is on record as “+++ (≥50 = +++)”.

Turning to “110 (GLTETGLYRI; listed as Homo sapiens) [compound 110]”, the “Wells positive [%]” value with CD8+ T cells is listed as “+++ (50%-69% = +++)”. In the experiment with HLA-A*02:01, the “Peptide exchange” value was “+++ (≥50 = +++)”.

In the case of “120 (SLAADIPRL; listed as Homo sapiens) [compound 120]”, in the experiment with HLA-A*02:01, the “Peptide exchange” value is listed as “+++ (≥50 = +++)”.

As to “121 (YMLEHVITL; listed as Homo sapiens) [compound 121]”, the “Peptide exchange” value in the experiment with HLA-A*02:01 is reported as “+++ (≥50 = +++)”.

For “122 (SMMPDELLTSL; listed as Homo sapiens) [compound 122]”, the “Peptide exchange” value with HLA-A*02:01 is listed as “+++ (≥50 = +++)”.

On to “123 (KLDKNPNQV; listed as Homo sapiens) [compound 123]”, for which the “Peptide exchange” value with HLA-A*02:01 is “+++ (≥50 = +++)”.

For the substance “124 (SLITDLQTI; listed as Homo sapiens) [compound 124]”, the “Peptide exchange” value in the experiment with HLA-A*02:01 is “+++ (≥50 = +++)”.

In the case of “125 (LLSEPSLLRTV; listed as Homo sapiens) [compound 125]”, the “Peptide exchange” value in the experiment with HLA-A*02:01 was “+++ (≥50 = +++)”.

Regarding “126 (AAASLIRLV; listed as Homo sapiens) [compound 126]”, the “Peptide exchange” value with HLA-A*02:01 is “+ (≥10% = +)”.

Consider “128 (SLAPAGVIRV; listed as Homo sapiens) [compound 128]”, for which the “wells (in vitro immunogenicity, positive wells)” value in the experiment with CD8+ T cells is “+ (<20% = +)”.

In the case of “129 (RVADYIVKV; listed as Homo sapiens) [compound 129]”, the “wells (in vitro immunogenicity, positive wells)” value with CD8+ T cells is given as “+ (<20% = +)”.

For the substance “130 (SLYDNQITTV; listed as Homo sapiens) [compound 130]”, the “wells (in vitro immunogenicity, positive wells)” value in the experiment on CD8+ T cells is reported as “++ (20%-49% = ++)”.

Turning to “132 (NLLAEIHGV; listed as Homo sapiens) [compound 132]”, in the experiment on CD8+ T cells, the “wells (in vitro immunogenicity, positive wells)” value is “+ (<20% = +)”.
